Test results reported in publication doi:10.1101/2020.08.12.247809 (bioRxiv, 2020).

How the values were obtained:
[1] = target: the molecule itself; test: SEC
[2] = target: GST-HDAC1 (mouse, UniProt O09106 1-482); test: pull-down
GST-HDAC1, sequence (O09106 whole entry): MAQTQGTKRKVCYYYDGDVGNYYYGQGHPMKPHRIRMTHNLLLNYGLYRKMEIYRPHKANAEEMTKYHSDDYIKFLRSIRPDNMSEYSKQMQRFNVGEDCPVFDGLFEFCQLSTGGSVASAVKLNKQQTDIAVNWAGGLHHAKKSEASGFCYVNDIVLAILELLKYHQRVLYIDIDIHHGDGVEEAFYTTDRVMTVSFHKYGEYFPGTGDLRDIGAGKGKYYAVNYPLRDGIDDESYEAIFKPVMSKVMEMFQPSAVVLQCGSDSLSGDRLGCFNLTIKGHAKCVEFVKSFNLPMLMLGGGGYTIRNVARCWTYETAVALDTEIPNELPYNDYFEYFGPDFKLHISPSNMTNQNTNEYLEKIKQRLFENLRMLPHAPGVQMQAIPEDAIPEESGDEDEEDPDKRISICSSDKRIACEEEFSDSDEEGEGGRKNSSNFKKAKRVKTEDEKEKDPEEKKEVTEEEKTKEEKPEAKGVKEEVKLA

B1: His6-KIAA1841(BTB) (domain or fragment, mouse, UniProt Q68FF0-1 144-261, looked up)
chain: GPNMVIHVCDEAKSLKEDFICPRDLLISEMKYFAEYLSMDAQRWEEVDISVHCDVHIFNWLIKYVKRNTKESKDCEIPALEPGNVISILISSEFLKMDSLVEQCIQYCHKNMNAIVAA
Q: With B1 as the binder, how does the “stoichiometry N” value [1] read?
A: 2

Q: Does B1 bind [2]?
A: binds
